Target: head domain of PPRV ICV'89 strain H protein (residues 156-610) (peste des petits ruminants virus, strain Ivory Coast'89 (ICV'89))
Assay: SEC

Question: How did the stoichiometry N turn out when “head domain of PPRV ICV'89 strain H protein (residues 156-610) (domain or fragment)” was run?
Answer: 2

— paper PMC7889028
